Reference: publication PMC8430995

B1: K8 WT/K18 WT (transfected), P05787;P05783 K8:G434S (protein)
chain 1: MSIRVTQKSYKVSTSGPRAFSSRSYTSGPGSRISSSSFSRVGSSNFRGGLGGGYGGASGMGGITAVTVNQSLLSPLVLEVDPNIQAVRTQEKEQIKTLNNKFASFIDKVRFLEQQNKMLETKWSLLQQQKTARSNMDNMFESYINNLRRQLETLGQEKLKLEAELGNMQGLVEDFKNKYEDEINKRTEMENEFVLIKKDVDEAYMNKVELESRLEGLTDEINFLRQLYEEEIRELQSQISDTSVVLSMDNSRSLDMDSIIAEVKAQYEDIANRSRAEAESMYQIKYEELQSLAGKHGDDLRRTKTEISEMNRNISRLQAEIEGLKGQRASLEAAIADAEQRGELAIKDANAKLSELEAALQRAKQDMARQLREYQELMNVKLALDIEIATYRKLLEGEESRLESGMQNMSIHTKTTSGYAGGLSSAYGGLTSPSLSYSLGSSFGSGAGSSSFSRTSSSRAVVVKKIETRDGKLVSESSDVLPK
chain 2: MSFTTRSTFSTNYRSLGSVQAPSYGARPVSSAASVYAGAGGSGSRISVSRSTSFRGGMGSGGLATGIAGGLAGMGGIQNEKETMQSLNDRLASYLDRVRSLETENRRLESKIREHLEKKGPQVRDWSHYFKIIEDLRAQIFANTVDNARIVLQIDNARLAADDFRVKYETELAMRQSVENDIHGLRKVIDDTNITRLQLETEIEALKEELLFMKKNHEEEVKGLQAQIASSGLTVEVDAPKSQDLAKIMADIRAQYDELARKNREELDKYWSQQIEESTTVVTTQSAEVGAAETTLTELRRTVQSLEIDLDSMRNLKASLENSLREVEARYALQMEQLNGILLHLESELAQTRAEGQRQAQEYEALLNIKVKLEAEIATYRRLLEDGEDFNLGDALDSSNSMQTIQKTTTRRIVDGKVVSETNDTKVLRH
B2: K8 WT/K18 WT (transfected), P05787;P05783 K8:G62C (protein)
chain 1: MSIRVTQKSYKVSTSGPRAFSSRSYTSGPGSRISSSSFSRVGSSNFRGGLGGGYGGASGMGCITAVTVNQSLLSPLVLEVDPNIQAVRTQEKEQIKTLNNKFASFIDKVRFLEQQNKMLETKWSLLQQQKTARSNMDNMFESYINNLRRQLETLGQEKLKLEAELGNMQGLVEDFKNKYEDEINKRTEMENEFVLIKKDVDEAYMNKVELESRLEGLTDEINFLRQLYEEEIRELQSQISDTSVVLSMDNSRSLDMDSIIAEVKAQYEDIANRSRAEAESMYQIKYEELQSLAGKHGDDLRRTKTEISEMNRNISRLQAEIEGLKGQRASLEAAIADAEQRGELAIKDANAKLSELEAALQRAKQDMARQLREYQELMNVKLALDIEIATYRKLLEGEESRLESGMQNMSIHTKTTSGYAGGLSSAYGGLTSPGLSYSLGSSFGSGAGSSSFSRTSSSRAVVVKKIETRDGKLVSESSDVLPK
chain 2: MSFTTRSTFSTNYRSLGSVQAPSYGARPVSSAASVYAGAGGSGSRISVSRSTSFRGGMGSGGLATGIAGGLAGMGGIQNEKETMQSLNDRLASYLDRVRSLETENRRLESKIREHLEKKGPQVRDWSHYFKIIEDLRAQIFANTVDNARIVLQIDNARLAADDFRVKYETELAMRQSVENDIHGLRKVIDDTNITRLQLETEIEALKEELLFMKKNHEEEVKGLQAQIASSGLTVEVDAPKSQDLAKIMADIRAQYDELARKNREELDKYWSQQIEESTTVVTTQSAEVGAAETTLTELRRTVQSLEIDLDSMRNLKASLENSLREVEARYALQMEQLNGILLHLESELAQTRAEGQRQAQEYEALLNIKVKLEAEIATYRRLLEDGEDFNLGDALDSSNSMQTIQKTTTRRIVDGKVVSETNDTKVLRH
B3: K8 WT/K18 WT (transfected), P05787;P05783 K18:D238E; K18:D396E (protein)
chain 1: MSIRVTQKSYKVSTSGPRAFSSRSYTSGPGSRISSSSFSRVGSSNFRGGLGGGYGGASGMGGITAVTVNQSLLSPLVLEVDPNIQAVRTQEKEQIKTLNNKFASFIDKVRFLEQQNKMLETKWSLLQQQKTARSNMDNMFESYINNLRRQLETLGQEKLKLEAELGNMQGLVEDFKNKYEDEINKRTEMENEFVLIKKDVDEAYMNKVELESRLEGLTDEINFLRQLYEEEIRELQSQISDTSVVLSMDNSRSLDMDSIIAEVKAQYEDIANRSRAEAESMYQIKYEELQSLAGKHGDDLRRTKTEISEMNRNISRLQAEIEGLKGQRASLEAAIADAEQRGELAIKDANAKLSELEAALQRAKQDMARQLREYQELMNVKLALDIEIATYRKLLEGEESRLESGMQNMSIHTKTTSGYAGGLSSAYGGLTSPGLSYSLGSSFGSGAGSSSFSRTSSSRAVVVKKIETRDGKLVSESSDVLPK
chain 2: MSFTTRSTFSTNYRSLGSVQAPSYGARPVSSAASVYAGAGGSGSRISVSRSTSFRGGMGSGGLATGIAGGLAGMGGIQNEKETMQSLNDRLASYLDRVRSLETENRRLESKIREHLEKKGPQVRDWSHYFKIIEDLRAQIFANTVDNARIVLQIDNARLAADDFRVKYETELAMRQSVENDIHGLRKVIDDTNITRLQLETEIEALKEELLFMKKNHEEEVKGLQAQIASSGLTVEVEAPKSQDLAKIMADIRAQYDELARKNREELDKYWSQQIEESTTVVTTQSAEVGAAETTLTELRRTVQSLEIDLDSMRNLKASLENSLREVEARYALQMEQLNGILLHLESELAQTRAEGQRQAQEYEALLNIKVKLEAEIATYRRLLEDGEDFNLGDALESSNSMQTIQKTTTRRIVDGKVVSETNDTKVLRH
B4: K8 WT/K18 WT (transfected), P05787;P05783 K8:R302C (protein)
chain 1: MSIRVTQKSYKVSTSGPRAFSSRSYTSGPGSRISSSSFSRVGSSNFRGGLGGGYGGASGMGGITAVTVNQSLLSPLVLEVDPNIQAVRTQEKEQIKTLNNKFASFIDKVRFLEQQNKMLETKWSLLQQQKTARSNMDNMFESYINNLRRQLETLGQEKLKLEAELGNMQGLVEDFKNKYEDEINKRTEMENEFVLIKKDVDEAYMNKVELESRLEGLTDEINFLRQLYEEEIRELQSQISDTSVVLSMDNSRSLDMDSIIAEVKAQYEDIANRSRAEAESMYQIKYEELQSLAGKHGDDLRCTKTEISEMNRNISRLQAEIEGLKGQRASLEAAIADAEQRGELAIKDANAKLSELEAALQRAKQDMARQLREYQELMNVKLALDIEIATYRKLLEGEESRLESGMQNMSIHTKTTSGYAGGLSSAYGGLTSPGLSYSLGSSFGSGAGSSSFSRTSSSRAVVVKKIETRDGKLVSESSDVLPK
chain 2: MSFTTRSTFSTNYRSLGSVQAPSYGARPVSSAASVYAGAGGSGSRISVSRSTSFRGGMGSGGLATGIAGGLAGMGGIQNEKETMQSLNDRLASYLDRVRSLETENRRLESKIREHLEKKGPQVRDWSHYFKIIEDLRAQIFANTVDNARIVLQIDNARLAADDFRVKYETELAMRQSVENDIHGLRKVIDDTNITRLQLETEIEALKEELLFMKKNHEEEVKGLQAQIASSGLTVEVDAPKSQDLAKIMADIRAQYDELARKNREELDKYWSQQIEESTTVVTTQSAEVGAAETTLTELRRTVQSLEIDLDSMRNLKASLENSLREVEARYALQMEQLNGILLHLESELAQTRAEGQRQAQEYEALLNIKVKLEAEIATYRRLLEDGEDFNLGDALDSSNSMQTIQKTTTRRIVDGKVVSETNDTKVLRH

Target: Akt WT (transfected), P31749
Assay: co-immunoprecipitation (K8/K18 IP, Akt immunoblot, quantified)
Conditions: chain shown with the change, BHK-21 cells transfected with Akt WT, parent: est. 1.0, read off a plot

Akt WT (transfected), P31749, sequence (P31749 whole entry): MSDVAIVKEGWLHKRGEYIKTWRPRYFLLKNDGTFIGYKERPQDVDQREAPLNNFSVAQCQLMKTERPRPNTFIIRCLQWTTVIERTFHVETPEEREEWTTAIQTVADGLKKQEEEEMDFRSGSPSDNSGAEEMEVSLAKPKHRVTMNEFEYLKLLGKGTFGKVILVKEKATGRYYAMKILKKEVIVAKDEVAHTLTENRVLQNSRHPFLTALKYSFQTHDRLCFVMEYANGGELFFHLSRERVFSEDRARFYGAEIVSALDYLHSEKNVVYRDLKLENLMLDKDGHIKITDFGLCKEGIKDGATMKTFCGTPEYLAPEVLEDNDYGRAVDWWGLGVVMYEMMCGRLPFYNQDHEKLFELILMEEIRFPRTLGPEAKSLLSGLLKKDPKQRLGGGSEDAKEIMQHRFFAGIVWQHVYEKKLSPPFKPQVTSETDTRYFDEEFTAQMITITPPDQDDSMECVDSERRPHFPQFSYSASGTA

| ratio to parent (K18 WT and the K8 mutant) | ratio to parent (K8 WT and the K18 mutant) | Binder |
| --- | --- | --- |
| 1.2 | – | B1 |
| 1.7 | – | B2 |
| – | 1.2 | B3 |
| 1.8 | – | B4 |
